Assay results: patent US20100086997A1 (published 2010)

B1: brain-derived neurotrophic factor (BDNF) (ligand, UniProt P23560 129-247, looked up)
chain: HSDPARRGELSVCDSISEWVTAADKKTAVDMSGGTVTVLEKVPVSKGQLKQYFYETKCNPMGYTKEGCRGIDKRHWNSQCRTTQSYVRALTMDSKKRIGWRFIRIDTSCVCTLTIKRGR
B2: NT4/5 (ligand, UniProt P34130 81-210, looked up)
chain: GVSETAPASRRGELAVCDAVSGWVTDRRTAVDLRGREVEVLGEVPAAGGSPLRQYFFETRCKADNAEEGGPGAGGGGCRGVDRRHWVSECKAKQSYVRALTADAQGRVGWRWIRIDTACVCTLLSRTGRA
B3: NT3 (ligand, UniProt P20783 139-257, looked up)
chain: YAEHKSHRGEYSVCDSESLWVTDKSSAIDIRGHQVTVLGEIKTGNSPVKQYFYETRCKEARPVKNGCRGIDDKHWNSQCKTSQTYVRALTSENNKLVGWRWIRIDTSCVCALSRKIGRT
notes: 'native ligands' bought from R&D Systems or made in-house
B4: Fc-fused recombinant human P75 (Fc fusion, UniProt P08138 29-250, looked up)
chain: KEACPTGLYTHSGECCKACNLGEGVAQPCGANQTVCEPCLDSVTFSDVVSATEPCKPCTECVGLQSMSAPCVEADDAVCRCAYGYYQDETTGRCEACRVCEAGSGLVFSCQDKQNTVCEECPDGTYSDEANHVDPCLPCTVCEDTERQLRECTRWADAECEEIPGRWITRSTPPEGSDSTAPSTQEPEAPPEQDLIASTVAGVVTTVMGSSQPVVTRGTTDN
notes: Bought from R&D Systems or made in-house; also called p75 neurotrophin receptor; LNGFR; not shown: Fc part

Key:
Assay in all cases: SPR (Biacore 3000), Fc-fused receptor amine-coupled to CM5 chip, ligand in solution, 25 C
[1] = target: B4
Method: (§1) A standard amine-coupling protocol was used in HBS-EP running buffer at 5 μl/min and involved three steps. […]. First, flow cells were activated with a 7-minute injection of a freshly prepared mixture of 200 mM EDC in 50 mM NHS; this step converted the chip's carboxylic acid groups to reactive esters. Next, receptors were diluted to ˜10 μg/mL in 10 mM sodium acetate buffer at pH 4.5 and coupled to the chip until the desired level had been reached. Finally, excess reactive esters were blocked with a 7-minute injection of 1M sodium ethanolamine-HCl (pH 8.5).
(§2) The Fab fragment of antibody 200.38B8 (38B8) was diluted from 0.7-480 nM in 3-fold increments. Samples were injected for 30 seconds at 100 μl/min allowing dissociation times of up to 10 mins. After each binding cycle, receptor surfaces were regenerated with a mildly acidic cocktail (10 mM glycine-HCl (pH 4.0), 500 mM NaCl, and 20 mM EDTA). […] Kinetic rate constants (kon and koff) were determined by fitting the binding data globally to a mass transport model and binding affinities were calculated from their ratio, KD=koff/kon.

[2] = target: T1, human TrkB-Fc fusion protein (human, UniProt Q16620 32-430)
T1 construct: Bought from R&D Systems or made in-house; also called HuTrkB; Fc-fused recombinant human TrkB; not shown: Fc part
Method: as §1, §2

[3] = target: T2, Fc-fused recombinant human TrkC (human, UniProt Q16288 32-429)
T2 construct: Bought from R&D Systems or made in-house; not shown: Fc part
Method: as §1, §2

[4] = target: T3, Fc-fused recombinant human TrkA (human, UniProt P04629-2 33-407, limits assumed)
T3 construct: Bought from R&D Systems or made in-house; not shown: Fc part
Method: as §1, §2

[5] = target: ProNGF (UniProt P01138 19-241)
Method: as §1, §2

Chain of ProNGF (P01138 19-241): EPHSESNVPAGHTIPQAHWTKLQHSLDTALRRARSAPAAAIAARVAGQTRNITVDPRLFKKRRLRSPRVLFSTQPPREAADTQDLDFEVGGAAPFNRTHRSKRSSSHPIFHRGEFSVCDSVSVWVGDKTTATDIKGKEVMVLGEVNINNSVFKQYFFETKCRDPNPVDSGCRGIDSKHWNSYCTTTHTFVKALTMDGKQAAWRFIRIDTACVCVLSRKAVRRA
T1 sequence (Q16620 32-430 limits assumed): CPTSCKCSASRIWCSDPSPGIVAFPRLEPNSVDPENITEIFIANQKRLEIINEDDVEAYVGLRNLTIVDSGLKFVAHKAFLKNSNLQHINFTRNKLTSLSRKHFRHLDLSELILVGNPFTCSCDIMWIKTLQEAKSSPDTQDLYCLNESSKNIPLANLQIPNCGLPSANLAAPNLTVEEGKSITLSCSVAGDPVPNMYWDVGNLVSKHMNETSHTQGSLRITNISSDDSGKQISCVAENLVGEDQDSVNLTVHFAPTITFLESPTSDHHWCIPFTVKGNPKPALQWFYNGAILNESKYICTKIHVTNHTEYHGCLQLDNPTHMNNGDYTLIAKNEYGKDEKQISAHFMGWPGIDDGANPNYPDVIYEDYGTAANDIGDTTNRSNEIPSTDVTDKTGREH
T3 sequence (P04629 other isoform, or with tags, fused parts or gaps limits assumed): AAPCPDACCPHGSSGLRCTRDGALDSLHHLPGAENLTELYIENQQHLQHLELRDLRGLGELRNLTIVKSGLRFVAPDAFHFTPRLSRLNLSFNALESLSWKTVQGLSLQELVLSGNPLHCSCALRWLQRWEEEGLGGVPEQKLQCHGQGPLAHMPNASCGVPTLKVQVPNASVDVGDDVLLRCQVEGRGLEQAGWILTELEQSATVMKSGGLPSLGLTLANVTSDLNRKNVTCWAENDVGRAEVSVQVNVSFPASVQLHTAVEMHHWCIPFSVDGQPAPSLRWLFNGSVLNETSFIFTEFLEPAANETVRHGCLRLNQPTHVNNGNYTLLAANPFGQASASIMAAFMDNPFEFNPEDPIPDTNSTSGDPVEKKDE

B1
Kd [1]: < 2.1 nM | Kd [2]: < 0.034 nM

B2
binding result [3]: no binding (tested: 0.08-250 nM) | Kd [4]: 17 nM | koff [4]: 0.04 s⁻¹ | kon [4]: 2.1e+06 M⁻¹ s⁻¹ | Kd [1]: 88 nM | koff [1]: 0.305 s⁻¹ | kon [1]: 3.45e+06 M⁻¹ s⁻¹ | Kd [2]: < 0.2 nM | koff [2]: 0.002 s⁻¹ | kon [2]: > 1e+07 M⁻¹ s⁻¹

B3
Kd [2]: < 4.4 nM

B4
Kd [5]: 130 nM | koff [5]: 0.0858 s⁻¹ | kon [5]: 658000 M⁻¹ s⁻¹
